The assay concerns the target T1, VEGFR-3 full-length extracellular domain (Homo sapiens (Human), UniProt P35916 25-775).
T1 construct: the construct is not described; also called the full-length extracellular domain
T1 sequence: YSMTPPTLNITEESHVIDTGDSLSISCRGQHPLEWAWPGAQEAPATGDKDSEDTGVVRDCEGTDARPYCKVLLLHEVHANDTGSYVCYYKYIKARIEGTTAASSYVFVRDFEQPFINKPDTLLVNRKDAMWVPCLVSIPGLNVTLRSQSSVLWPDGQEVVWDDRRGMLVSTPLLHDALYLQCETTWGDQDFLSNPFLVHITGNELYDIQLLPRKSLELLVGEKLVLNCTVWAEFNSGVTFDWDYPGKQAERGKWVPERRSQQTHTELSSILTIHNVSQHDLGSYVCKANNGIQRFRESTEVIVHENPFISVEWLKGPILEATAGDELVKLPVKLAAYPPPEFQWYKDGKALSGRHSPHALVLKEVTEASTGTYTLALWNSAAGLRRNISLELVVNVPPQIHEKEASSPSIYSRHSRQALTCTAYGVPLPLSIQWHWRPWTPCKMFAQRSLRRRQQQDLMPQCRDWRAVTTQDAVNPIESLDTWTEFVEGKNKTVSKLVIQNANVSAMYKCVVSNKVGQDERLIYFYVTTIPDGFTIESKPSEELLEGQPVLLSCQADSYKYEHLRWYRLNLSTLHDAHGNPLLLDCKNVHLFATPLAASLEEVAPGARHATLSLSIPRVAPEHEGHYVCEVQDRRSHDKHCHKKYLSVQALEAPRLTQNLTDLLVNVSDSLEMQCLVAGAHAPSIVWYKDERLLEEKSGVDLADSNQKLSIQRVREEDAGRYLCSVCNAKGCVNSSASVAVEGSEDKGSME
Description: not described.

B1: VEGF-D (ligand)
chain: FYDIETLKVIDEEWQRTQCSPRETCVEVASELGKSTNTFFKPPCVNVFRCGGCCNEESLICMNTSTSYISKQLFEISVPLTSVPELVPVKVANHTGCKCLPTAPRHPYS
notes: Bought protein; also called vascular endothelial growth factor D
Turning to B1, the binding result is “binds”.

Values taken from US20040037820A1 (published 2004).
